Data taken from patent US20170283509A1 (University of Texas, published 2017).

B3: Anterior Gradient 2 (AGR2), endogenous protein from PDAC cell lysate (SU86.86) (ligand)
chain: RDTTVKPGAKKDTKDSRPKLPQTLSRGWGDQLIWTQTYEEALYKSKTSNKPLMIIHHLDECPHSQALKKVFAENKEIQKLAEQFVLLNLVYETTDKHLSPDGQYVPRIMFVDPSLTVRADITGRYSNRLYAYEPADTALLLDNMKKALKLLKTEL
notes: Endogenous AGR2 of human pancreatic cancer cell lysates, used in IP and western blot; also called hAG-2; Gob-4

Legend:
[1] = biological target: T1, C4.4A (LYPD3), endogenous protein of PDAC cells (human, UniProt O95274 31-326); assay: western blot (FIG. 5A)
T1 construct: On PDAC cells in the functional assays
T1 sequence: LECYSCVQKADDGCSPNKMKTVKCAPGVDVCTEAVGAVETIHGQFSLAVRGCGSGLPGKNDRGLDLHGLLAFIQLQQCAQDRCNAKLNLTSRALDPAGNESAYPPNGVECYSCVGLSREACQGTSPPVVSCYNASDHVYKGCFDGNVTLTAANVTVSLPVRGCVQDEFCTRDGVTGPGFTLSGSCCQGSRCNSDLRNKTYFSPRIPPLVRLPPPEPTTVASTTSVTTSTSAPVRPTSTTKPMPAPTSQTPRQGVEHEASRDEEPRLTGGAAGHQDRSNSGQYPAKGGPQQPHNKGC

[2] = biological target: T2, C4.4A antigenic peptide (CPVRPTSTTKPMPAPTSQTPRQGVEHEASRDEEPRL; SEQ ID NO: 4) (human); assay: ELISA, antigenic peptide (0.5 ug) coated, probed with purified Ab (FIG. 11D)
T2 peptide: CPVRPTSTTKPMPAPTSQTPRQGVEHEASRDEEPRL
Description: (§1) FIGS. 11A-D. Monoclonal antibodies developed bind respectively to AGR2 and C4.4A proteins and blocked their functions. From the endogenous lysate (SU86.86/Panc-1), AGR2 (18 kD) and C4.4A (50 kD) were identified by a panel of mAbs. […] Extra bands identified with the endogenous protein were re-confirmed with the recombinant protein. For apoptosis studies, AsPC-1 cells were treated without or with Gem (0.5 μM) and rAGR2 (100 nM) and with purified (A) AGR2 and (B) C4.4A Abs (1 μM). Commercially available Abs served as control. […] Horizontal line represents median apoptotic value. Data shown are mean±SE for 3 experiments (*p<0.05). (C,D) Binding assays were conducted with purified (C) AGR2 and (D) C4.4A Abs as selected from the apoptosis assay as having high blocking efficiency. ELISA assays were conducted by coating antigenic peptide (0.5 μg) and probed with respective purified Abs. Data shown are mean±SE for 3 experiments (*p <0.05). Based on high specificity and binding, clone 28B for AGR2 and 1A for C4.4A were selected. Purified Abs were also run on 4-20% gradient gel to check for the presence of heavy (50 kD) and light chains (25 kD).

[3] = biological target: B3; assay: western blot (FIG. 5A)
[4] = biological target: T3, human recombinant AGR2 (rAGR2) (ab64013, AbCam) (human, UniProt O95994 21-175, limits assumed); assay: western blot (FIG. 5A)
T3 construct: also called extracellular AGR2
T3 sequence: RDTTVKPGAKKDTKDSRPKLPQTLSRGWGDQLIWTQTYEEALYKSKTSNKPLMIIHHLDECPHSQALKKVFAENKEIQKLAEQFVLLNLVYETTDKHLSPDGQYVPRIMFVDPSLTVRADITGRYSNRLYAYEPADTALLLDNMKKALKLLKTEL

[5] = biological target: T4, AGR2 antigenic peptide (CIHHLDESPHSQALKKVFAENKEIQKLAEQ; SEQ ID NO: 3) (human); assay: ELISA, antigenic peptide (0.5 ug) coated, probed with purified Ab (FIG. 11C)
T4 peptide: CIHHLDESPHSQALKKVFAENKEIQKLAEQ
Description: as §1

[6] = biological target: T1, C4.4A (LYPD3), endogenous protein of …; assay: co-immunoprecipitation from SU86.86 lysate with commercial anti-AGR2 antibody, western blot
dystroglycan-1 (DAG-1) = biological target: T5, dystroglycan-1 (DAG-1) (UniProt Q14118 30-895, limits assumed); assay: as above
T5 construct: Endogenous protein of a PDAC cell lysate; also called Dystoglycan-1
T5 sequence (looked up): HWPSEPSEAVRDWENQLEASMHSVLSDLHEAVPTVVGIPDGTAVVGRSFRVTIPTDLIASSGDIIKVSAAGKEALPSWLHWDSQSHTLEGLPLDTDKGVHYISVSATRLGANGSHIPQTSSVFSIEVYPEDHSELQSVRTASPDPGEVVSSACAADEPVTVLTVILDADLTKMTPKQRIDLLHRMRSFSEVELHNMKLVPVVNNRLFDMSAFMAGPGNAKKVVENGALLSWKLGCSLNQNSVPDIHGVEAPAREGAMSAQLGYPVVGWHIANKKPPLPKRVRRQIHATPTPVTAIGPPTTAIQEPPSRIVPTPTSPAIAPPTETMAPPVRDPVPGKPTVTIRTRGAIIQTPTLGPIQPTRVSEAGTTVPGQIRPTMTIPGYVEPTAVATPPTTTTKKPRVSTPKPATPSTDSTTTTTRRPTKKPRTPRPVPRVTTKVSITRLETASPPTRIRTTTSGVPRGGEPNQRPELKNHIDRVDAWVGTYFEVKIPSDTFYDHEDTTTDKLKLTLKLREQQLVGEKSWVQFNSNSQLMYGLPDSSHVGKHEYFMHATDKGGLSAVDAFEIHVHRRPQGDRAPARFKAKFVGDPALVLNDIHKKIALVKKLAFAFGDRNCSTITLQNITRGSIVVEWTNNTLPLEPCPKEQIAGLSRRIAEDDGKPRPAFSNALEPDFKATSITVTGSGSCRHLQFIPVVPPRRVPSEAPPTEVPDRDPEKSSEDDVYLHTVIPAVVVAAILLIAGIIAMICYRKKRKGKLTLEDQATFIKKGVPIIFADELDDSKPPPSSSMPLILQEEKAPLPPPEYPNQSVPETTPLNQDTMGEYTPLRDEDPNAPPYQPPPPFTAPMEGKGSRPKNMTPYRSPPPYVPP

B1: 162-1A-1 monoclonal antibody (antibody, V domains shown)
VH: EVMLVESGGGLVKPGGSLKLSCAASGFTFSSYTMSWVRQTPEKRLEWVASISSGGGNTYYADSVKGRFTMSRDNAKNNLYLQMSSLRSEDTALYYCARSYYYGISYDTYWGQGTLVTVSA
VL: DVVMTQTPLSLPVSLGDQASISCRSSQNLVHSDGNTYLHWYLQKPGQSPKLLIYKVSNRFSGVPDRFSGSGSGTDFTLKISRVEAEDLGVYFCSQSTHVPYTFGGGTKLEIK
notes: also called C4.4A mAb; clone 1A
B1: binds [1]; binds [2].

B2: 163-28B-1 monoclonal antibody (antibody, V domains shown)
VH: QIQLVQSGPELKKPGETVKISCKASGYTFTNYGMNWVKQAPGKGLKWMGWINTDTGKPTYTEEFKGRFAFSLATSASTAYLQINNLRNEDTATYFCGRVTADSMDYWGQGTSVTVSS
VL: DVVMTQTPLSLPVSLGDQASISCRSSQSLVHSNGNIYLHWFLQKPGQSPKLLIYKVSNRFSGVPDRFSGSGSGTDFTLKISRVEAEDLGVYFCSQSTHVPLTFGAGTKLELK
notes: also called AGR2 mAb; clone 28B
B2: binds [3]; binds [4]; binds [5].

B3: binds [6]; no binding (dystroglycan-1 (DAG-1)).
